Data published in paper PMC6960015 (Nature cell biology, 2019).

Molecular target: Rabbit skeletal muscle LatB-actin (rabbit, UniProt P68135 1-377)
Assay: BLI

- Kd: 40.3 nM
B1: GST-ArhGAP12 ΔNΔP (568-791) (domain or fragment)
chain: QKKTKKNLKKFLTRRPTLQAVREKGYIKDQVFGSNLANLCQRENGTVPKFVKLCIEHVEEHGLDVDGIYRVSGNLAVIQKLRFAVNHDEKLDLNDSKWEDIHVITGALKMFFRELPEPLFTFNHFNDFVNAIKQEPRQRVTAVKDLIRQLPKPNQDTMQILFRHLKRVIENGEKNRMTYQSIAIVFGPTLLKPERETGNIAVHTVYQNQIVELILLELSTVFGR
